Article PMC8141644 (2021)
Read-outs that look alike come from different tables or passages of the source.

B1: dFEB4-1 (antibody, V domains shown)
VH: AVTLDESGGGLQTPGGALSLVCKASGFTFSSHGMLWVRQAPGKGLEFVAGISTDGSSTSYGAPVKGRATISRDNGQSTVRLQLNNLRAEDTGTYYCAKDAYRCRNCAEDIDAWGHGTEVIVSS
VL: ALTQPSSVSANPGETVKITCSGGGYDGSYYYGWYQQKSPGSAPVTVIYDNTNRPSNIPSRFSGSLSGSTNTLTITGVQAEDEAVYFCGGYDRSGGIFGGGTTLTVL
B2: FEB4 (antibody, V domains shown)
VH: B1 VH
VL: ALTQPSSVSANPGETVKITCSGGYSDDGSYYYYGWFQQKSPGSAPVTVIYDNTNRPSNIPSRFSGSTSGSTSTLTITGVRAEDEAVYYCGSIDTGYAGIFGAGTTLTVL

How the values were obtained:
EGFR-ECD [1] = biological target: T1, EGFR-ECD (UniProt P00533 25-645); assay: BLI
EGFR-ECD [2] = biological target: T1, EGFR-ECD; assay: BLI; remark: listed apart in the source

Binder	Kd (EGFR-ECD [1])	Kd (EGFR-ECD [2])
B1	3.7 nM	–
B2	–	29.3 nM
